Assay [1] addresses human CD94 (human) (UniProt Q13241). As to the kind of experiment: HLA-E tetramer blocking on healthy-donor PBMC NK cells, flow cytometry; competitor HLA-E tetramer.
Assay [2] has the same target. As to the kind of experiment: table column 'Affinity on human NK cells'; flow cytometry titration on human primary NK cells (the filing gives these affinities as EC50 of the titration curve). A general note: In flow cytometry, cells or beads pass a laser one at a time.
Assay [3] has the same target. As to the kind of experiment: table column 'HLA-E blocking'; flow cytometry on NK cells of healthy donor PBMCs, antibody at saturating concentration, blocked ligand PE labeled HLA-E tetramer; percent blocking = 100-((percent HLA-E positive with antibody)/(percent HLA-E positive with isotype)*100).
Assay [4] has the same target. As to the kind of experiment: competition assay, flow cytometry on NK cells of healthy donor PBMCs; labeled HP-3B1 titrated, concurrently Human IgG1 control.
The target is the same in assay [5]. Description: competition assay, flow cytometry on CD3-CD56+ NK cells of healthy donor PBMCs; labeled HP-3B1 titrated in the presence of 1E4 at 11 µg/ml.
Assay [6] has the same target. Description: competition assay, flow cytometry on CD3-CD56+ NK cells of healthy donor PBMCs; labeled HP-3B1 titrated, concurrently Human IgG1 control (or 18H3 at 1.3 µg/ml).

Chain of human CD94 (human) (Q13241 whole entry): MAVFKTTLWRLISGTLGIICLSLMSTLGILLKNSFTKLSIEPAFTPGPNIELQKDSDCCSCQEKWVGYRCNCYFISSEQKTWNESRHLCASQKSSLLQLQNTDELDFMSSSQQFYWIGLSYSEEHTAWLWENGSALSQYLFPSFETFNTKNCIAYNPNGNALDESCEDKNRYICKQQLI

With anti-CD94 antibody clone DX22, the percent HLA-E blocking with human CD94 (human) [1] is above 40%. This substance came in with an Affinity on human NK cells with human CD94 (human) [2] of 0.15 nM. In the assay with human CD94 (human) [3], this substance yielded an HLA-E blocking of 99%.

anti-CD94 antibody clone HP-3B1: the percent HLA-E blocking with human CD94 (human) [1] was above 40%. For the same substance, the half-maximal effective concentration (EC50 (read off the curve)) (as a rule, the concentration needed to bring the measured effect to its halfway point) with human CD94 (human) [4] was found to be 3 nM; with human CD94 (human) [5], 2 nM; with human CD94 (human) [6] it was 3 nM. In the assay with human CD94 (human) [2], this substance came in with an Affinity on human NK cells of 3 nM. This substance yielded an HLA-E blocking in the assay with human CD94 (human) [3] of 99.8%.

Values taken from patent US20220127365A1.
